Reference: IntAct's records for PubMed 12502741

B1: Retinoblastoma-associated protein (Homo sapiens), P06400 (parent)
chain: MPPKTPRKTAATAAAAAAEPPAPPPPPPPEEDPEQDSGPEDLPLVRLEFEETEEPDFTALCQKLKIPDHVRERAWLTWEKVSSVDGVLGGYIQKKKELWGICIFIAAVDLDEMSFTFTELQKNIEISVHKFFNLLKEIDTSTKVDNAMSRLLKKYDVLFALFSKLERTCELIYLTQPSSSISTEINSALVLKVSWITFLLAKGEVLQMEDDLVISFQLMLCVLDYFIKLSPPMLLKEPYKTAVIPINGSPRTPRRGQNRSARIAKQLENDTRIIEVLCKEHECNIDEVKNVYFKNFIPFMNSLGLVTSNGLPEVENLSKRYEEIYLKNKDLDARLFLDHDKTLQTDSIDSFETQRTPRKSNLDEEVNVIPPHTPVRTVMNTIQQLMMILNSASDQPSENLISYFNNCTVNPKESILKRVKDIGYIFKEKFAKAVGQGCVEIGSQRYKLGVRLYYRVMESMLKSEEERLSIQNFSKLLNDNIFHMSLLACALEVVMATYSRSTSQNLDSGTDLSFPWILNVLNLKAFDFYKVIESFIKAEGNLTREMIKHLERCEHRIMESLAWLSDSPLFDLIKQSKDREGPTDHLESACPLNLPLQNNHTAADMYLSPVRSPKKKGSTTRVNSTANAETQATSAFQTQKPLKSTSLSLFYKKVYRLAYLRLNTLCERLLSEHPELEHIIWTLFQHTLQNEYELMRDRHLDQIMMCSMYGICKVKNIDLKFKIIVTAYKDLPHAVQETFKRVLIKEEEYDSIIVFYNSVFMQRLKTNILQYASTRPPTLSPIPHIPRSPYKFPSSPLRIPGGNIYISPLKSPYKISEGLPTPTKMTPRSRILVSIGESFGTSEKFQKINQMVCNSDRVLKRSAEGSNPPKPLKKLRFDIEGSDEADGSKHLPGESKFQQKLAEMTSTRTRMQKQKMNDSMDTSNKEEK

Variants of: B1
Conditions: with e2f1_human E2F1, Q01094
e2f1_human E2F1, Q01094, sequence (Q01094 whole entry): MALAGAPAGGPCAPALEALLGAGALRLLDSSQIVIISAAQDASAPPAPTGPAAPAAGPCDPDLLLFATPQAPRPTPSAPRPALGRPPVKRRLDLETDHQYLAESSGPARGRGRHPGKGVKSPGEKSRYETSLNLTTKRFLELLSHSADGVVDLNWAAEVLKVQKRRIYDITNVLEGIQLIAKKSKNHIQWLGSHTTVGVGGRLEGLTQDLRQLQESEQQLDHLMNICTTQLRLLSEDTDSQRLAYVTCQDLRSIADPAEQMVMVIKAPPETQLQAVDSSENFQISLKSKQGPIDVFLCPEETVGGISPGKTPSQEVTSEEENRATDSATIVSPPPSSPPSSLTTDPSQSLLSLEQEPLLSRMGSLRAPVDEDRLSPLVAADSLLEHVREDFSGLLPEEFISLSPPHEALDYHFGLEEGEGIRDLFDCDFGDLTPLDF

| effect of a mutation on the interaction | Variant |
| --- | --- |
| decreasing interaction strength | F482A |
| decreasing interaction strength | K653A |
| decreasing interaction strength | E554A |
| decreasing interaction strength | R467A |
